This is an account of results in patent US20240270821A1, “GIP/GLP1/GCG TRI-RECEPTOR AGONISTS AND USES THEREOF” (priority 2023, published 2024).

What all share (test): cell-based or functional assay
The target of assay [1] is T1, human GIP receptor (human) (UniProt P48546).
T1 sequence (looked up): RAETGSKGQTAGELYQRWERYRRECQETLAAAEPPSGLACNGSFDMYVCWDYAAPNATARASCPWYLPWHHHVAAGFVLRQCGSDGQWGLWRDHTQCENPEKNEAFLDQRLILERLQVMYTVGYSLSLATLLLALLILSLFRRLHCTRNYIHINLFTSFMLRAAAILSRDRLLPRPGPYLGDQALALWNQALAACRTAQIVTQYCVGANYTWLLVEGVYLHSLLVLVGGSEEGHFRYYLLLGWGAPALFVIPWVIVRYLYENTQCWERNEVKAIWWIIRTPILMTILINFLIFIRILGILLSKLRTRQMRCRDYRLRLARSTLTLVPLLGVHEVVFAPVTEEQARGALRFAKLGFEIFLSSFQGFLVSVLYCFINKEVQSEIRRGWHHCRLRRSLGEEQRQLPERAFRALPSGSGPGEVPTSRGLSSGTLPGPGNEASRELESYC

For assay [2], the target named is human GLP1-R (SNAP-GLP-1R expressed in HEK293 cells) (human) (UniProt P43220).
Assay [3] addresses human glucagon receptor (human) (UniProt P47871).
The target of another assay is hGLP-1R (Homo sapiens, UniProt P43220).

Substitutions are numbered along the chain they refer to. Starred links: 1 amine or outer side, 2 acyl side, 3 side chain; linkers in the order of their positions; H or OH if unused. Non-standard residues stand in square brackets, D forms with d. Groups on a side chain read outwards from the residue. No end group written: not given here. *: point of attachment. C18 diacid = O=C(O)CCCCCCCCCCCCCCCCC(=O)*; γGlu = O=C(O)[C@H](CCC(=O)[*:2])N[*:1]; αMeL = CC(C)C[C@](C)(N)C(=O)O; Dab = NCC[C@H](N)C(=O)O; Dap = NC[C@H](N)C(=O)O; AEEA = NCCOCCOCC(=O)O; Aib = CC(C)(N)C(=O)O

Chain of human glucagon receptor (human) (P47871 26-477): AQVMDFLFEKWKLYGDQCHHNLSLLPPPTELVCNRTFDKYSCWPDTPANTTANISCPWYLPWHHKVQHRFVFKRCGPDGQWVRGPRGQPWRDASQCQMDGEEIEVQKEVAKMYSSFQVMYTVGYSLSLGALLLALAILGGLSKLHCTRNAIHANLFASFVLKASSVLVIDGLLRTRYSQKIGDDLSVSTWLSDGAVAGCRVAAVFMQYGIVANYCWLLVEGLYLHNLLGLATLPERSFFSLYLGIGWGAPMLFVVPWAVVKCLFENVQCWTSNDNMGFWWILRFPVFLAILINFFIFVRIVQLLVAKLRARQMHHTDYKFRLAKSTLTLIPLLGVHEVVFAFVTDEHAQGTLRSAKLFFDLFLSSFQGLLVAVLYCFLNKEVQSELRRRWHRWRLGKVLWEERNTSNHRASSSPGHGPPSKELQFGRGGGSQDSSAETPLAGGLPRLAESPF
Chain of hGLP-1R (P43220 24-463): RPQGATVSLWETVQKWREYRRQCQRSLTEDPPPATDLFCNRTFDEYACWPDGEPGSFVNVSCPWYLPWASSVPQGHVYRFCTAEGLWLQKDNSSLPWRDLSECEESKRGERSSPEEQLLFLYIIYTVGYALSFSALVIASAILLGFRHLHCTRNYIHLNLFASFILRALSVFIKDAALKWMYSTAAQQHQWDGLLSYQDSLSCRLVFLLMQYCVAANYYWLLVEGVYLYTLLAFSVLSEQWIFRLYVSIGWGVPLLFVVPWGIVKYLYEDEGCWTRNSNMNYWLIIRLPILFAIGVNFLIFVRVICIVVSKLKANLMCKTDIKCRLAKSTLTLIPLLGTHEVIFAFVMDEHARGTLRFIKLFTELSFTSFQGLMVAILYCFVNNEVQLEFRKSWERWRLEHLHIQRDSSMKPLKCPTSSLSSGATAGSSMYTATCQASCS
Chain of human GLP1-R (SNAP-GLP-1R expressed in HEK293 cells) (human) (P43220 24-463): as above

B1: Example 48 (peptide)
chain: YXQGTFTSDFSKXLDKKAQXAFIEYLLEGGPSSGAPPPSEG
modifications: not fully specified; synthetic construct; SITE 2: note = 2-Aminoisobutyric Acid; SITE 13: note = alpha-methyl-leucine; SITE 17: note = Lysine is chemically modified through conjugation of the epsilon-amino group of the Lysine side chain with (2-[2-(2-Amino-ethoxy)-ethoxy]-acetyl)-(gamma-Glu)-CO-(CH2) 16-CO2H; SITE 20: n
For the molecule B1, in assay [1], the Relative cAMP EC50 came to 0.27 nM and the cAMP Rel EC50, nM (in the presence of 1% HSA) came to 46.9 nM. In assay [2], this molecule showed a GLP1R Internalization EC50 of 44 nM and an Internalization % TOP of 55.2%. In assay [3], the Relative cAMP EC50 is 3.8 nM and the cAMP Rel EC50, nM (in the presence of 1% HSA) was 728 nM. Further, in the assay with hGLP-1R, the Relative cAMP EC50 came out at 2.99 nM and the cAMP Rel EC50, nM (in the presence of 1% HSA) turned out to be 570 nM.

B2: Example 75 (peptide)
chain: B1 chain with K12X, G29X, E40G, G41S
modifications: synthetic construct; SITE 2: note = 2-Aminoisobutyric Acid; SITE 12: note = L-ornithine; SITE 13: note = alpha-methyl-leucine; SITE 17: note = Lysine is chemically modified through conjugation of the epsilon-amino group of the Lysine side chain with (2-[2-(2-Amino-ethoxy)-ethoxy]-acetyl)2-(gamma-Glu)
For B2, in assay [1], the Relative cAMP EC50 stood at 0.0578 nM and the cAMP Rel EC50, nM (in the presence of 1% HSA) was determined as 16.8 nM. In assay [2], this molecule displayed a GLP1R Internalization EC50 of 61.8 nM and an Internalization % TOP of 51.9%. Also, in assay [3], the Relative cAMP EC50 amounted to 4.51 nM and the cAMP Rel EC50, nM (in the presence of 1% HSA) came to 1040 nM. Further, in the assay with hGLP-1R, the Relative cAMP EC50 worked out at 4.4 nM and the cAMP Rel EC50, nM (in the presence of 1% HSA) turned out to be 878 nM.

B3: Example 55 (peptide)
chain: B1 chain with G29X, S39G
modifications: synthetic construct; SITE 2: note = 2-Aminoisobutyric Acid; SITE 13: note = alpha-methyl-leucine; SITE 17: note = Lysine is chemically modified through conjugation of the epsilon-amino group of the Lysine side chain with (2-[2-(2-Amino-ethoxy)-ethoxy]-acetyl)2-(gamma-Glu)-CO-(CH2 )18-CO2H; SITE 20:
With B3, in assay [1], the Relative cAMP EC50 was determined as 0.0856 nM and the cAMP Rel EC50, nM (in the presence of 1% HSA) stood at 27.8 nM. In assay [2], the GLP1R Internalization EC50 turned out to be 79.5 nM and the Internalization % TOP was 70.7%. Also, in assay [3], the Relative cAMP EC50 came to 5.2 nM and the cAMP Rel EC50, nM (in the presence of 1% HSA) is 960 nM. Moreover, in the assay with hGLP-1R, the Relative cAMP EC50 was determined as 1.96 nM and the cAMP Rel EC50, nM (in the presence of 1% HSA) was 479 nM.

B4: Example 57 (peptide)
chain: B1 chain with G29X
modifications: synthetic construct; SITE 2: note = 2-Aminoisobutyric Acid; SITE 13: note = alpha-methyl-leucine; SITE 17: note = Lysine is chemically modified through conjugation of the epsilon-amino group of the Lysine side chain with (2-[2-(2-Amino-ethoxy)-ethoxy]-acetyl)-(gamma-Glu)-CO-(CH2) 16-CO2H; SITE 20: n
Turning to B4, in assay [1], the Relative cAMP EC50 came to 0.098 nM and the cAMP Rel EC50, nM (in the presence of 1% HSA) came to 3.78 nM. In assay [2], this molecule registered a GLP1R Internalization EC50 of 76.6 nM and an Internalization % TOP of 73.1%. For the same molecule, in assay [3], the Relative cAMP EC50 was found to be 4.37 nM and the cAMP Rel EC50, nM (in the presence of 1% HSA) is 113 nM. Also, in the assay with hGLP-1R, the Relative cAMP EC50 turned out to be 3.06 nM and the cAMP Rel EC50, nM (in the presence of 1% HSA) stood at 42.7 nM.

B5: Example 62 (peptide)
chain: B1 chain with K12X, S39G, E40G, G41S
modifications: synthetic construct; SITE 2: note = 2-Aminoisobutyric Acid; SITE 12: note = L-ornithine; SITE 13: note = alpha-methyl-leucine; SITE 17: note = Lysine is chemically modified through conjugation of the epsilon-amino group of the Lysine side chain with (2-[2-(2-Amino-ethoxy)-ethoxy]-acetyl)-(gamma-Glu)
As to B5, in assay [1], the Relative cAMP EC50 amounted to 0.146 nM and the cAMP Rel EC50, nM (in the presence of 1% HSA) was 31.2 nM. Besides, in assay [2], the GLP1R Internalization EC50 was 40.3 nM and the Internalization % TOP stood at 44.9%. For the same molecule, in assay [3], the Relative cAMP EC50 is 3.96 nM and the cAMP Rel EC50, nM (in the presence of 1% HSA) worked out at 396 nM. For the same molecule, in the assay with hGLP-1R, the Relative cAMP EC50 was 2.72 nM and the cAMP Rel EC50, nM (in the presence of 1% HSA) stood at 299 nM.

B6: Example 49 (peptide)
chain: B1 chain with L27I
modifications: not fully specified; acylated side chain; synthetic construct; SITE 2: note = 2-Aminoisobutyric Acid; SITE 13: note = alpha-methyl-leucine; SITE 17: note = Lysine is chemically modified through conjugation of the epsilon-amino group of the Lysine side chain with (2-[2-(2-Amino-ethoxy)-ethoxy]-acetyl)-(gamma-Glu)-CO-gamma -gamma-(CH2)16-CO2H
For the molecule B6, in assay [1], the Relative cAMP EC50 is 0.324 nM and the cAMP Rel EC50, nM (in the presence of 1% HSA) amounted to 44.9 nM. Besides, in assay [2], the GLP1R Internalization EC50 was found to be 37.2 nM and the Internalization % TOP was 53.2%. In addition, in assay [3], the Relative cAMP EC50 turned out to be 5.54 nM and the cAMP Rel EC50, nM (in the presence of 1% HSA) was 1310 nM. Also, in the assay with hGLP-1R, the Relative cAMP EC50 stood at 0.706 nM and the cAMP Rel EC50, nM (in the presence of 1% HSA) was 151 nM.
Consider Y[Aib]QGTFTSDFS[Dap][αMeL]LDKK([AEEA-γGlu-C18 diacid])AQ[Aib]AFIEYLLEGGPSSGAPPPGGS-NH2 (ends and bridges not checked) [Example 68], for which, in assay [1], the Relative cAMP EC50 was determined as 0.46 nM and the cAMP Rel EC50, nM (in the presence of 1% HSA) came to 85.1 nM. In assay [2], this molecule registered a GLP1R Internalization EC50 of 95.2 nM and an Internalization % TOP of 33.8%. Also, in assay [3], the Relative cAMP EC50 stood at 8.55 nM and the cAMP Rel EC50, nM (in the presence of 1% HSA) was found to be 1160 nM. In the assay with hGLP-1R, the Relative cAMP EC50 was found to be 3.07 nM and the cAMP Rel EC50, nM (in the presence of 1% HSA) was 612 nM.
Regarding Y[Aib]QGTFTSDFS[Dab][αMeL]LDKK([AEEA-γGlu-C18 diacid])AQ[Aib]AFIEYLLEGGPSSGAPPPGGS-NH2 [Example 67], in assay [1], the Relative cAMP EC50 is 0.34 nM and the cAMP Rel EC50, nM (in the presence of 1% HSA) is 73.3 nM. In assay [2], this molecule returned a GLP1R Internalization EC50 of 50.9 nM and an Internalization % TOP of 31.1%. Moreover, in assay [3], the Relative cAMP EC50 is 3.7 nM and the cAMP Rel EC50, nM (in the presence of 1% HSA) came out at 781 nM. Besides, in the assay with hGLP-1R, the Relative cAMP EC50 is 4.07 nM and the cAMP Rel EC50, nM (in the presence of 1% HSA) stood at 683 nM.

B7: Example 66 (peptide)
chain: YXQGTFTSDFSXXLDKKAQXAFIEYLLEGGPSSGAPPPGGSX
modifications: synthetic construct; SITE 2: note = 2-Aminoisobutyric Acid; SITE 12: note = L-ornithine; SITE 13: note = alpha-methyl-leucine; SITE 17: note = Lysine is chemically modified through conjugation of the epsilon-amino group of the Lysine side chain with (2-[2-(2-Amino-ethoxy)-ethoxy]-acetyl)-(gamma-Glu)
As for B7, in assay [1], the Relative cAMP EC50 was 0.219 nM and the cAMP Rel EC50, nM (in the presence of 1% HSA) was determined as 29.9 nM. In assay [2], this molecule displayed a GLP1R Internalization EC50 of 42.1 nM and an Internalization % TOP of 46.3%. Also, in assay [3], the Relative cAMP EC50 was determined as 3.71 nM and the cAMP Rel EC50, nM (in the presence of 1% HSA) was determined as 415 nM. Also, in the assay with hGLP-1R, the Relative cAMP EC50 was 3.86 nM and the cAMP Rel EC50, nM (in the presence of 1% HSA) is 329 nM.
